Molecular target: human CCR5 (human) (UniProt P51681)
Experiment: cell-based or functional assay

Sequence of human CCR5 (human) (P51681 whole entry): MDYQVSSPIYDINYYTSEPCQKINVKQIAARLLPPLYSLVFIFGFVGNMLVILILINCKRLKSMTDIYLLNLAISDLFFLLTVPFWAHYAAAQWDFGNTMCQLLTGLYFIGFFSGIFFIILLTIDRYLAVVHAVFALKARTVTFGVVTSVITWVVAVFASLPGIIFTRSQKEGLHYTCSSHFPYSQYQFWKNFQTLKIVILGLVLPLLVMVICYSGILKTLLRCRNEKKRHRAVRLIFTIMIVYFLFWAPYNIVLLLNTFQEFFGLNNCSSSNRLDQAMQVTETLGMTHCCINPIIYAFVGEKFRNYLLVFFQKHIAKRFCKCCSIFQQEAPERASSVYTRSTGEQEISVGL

## Pharmingen 2D7 (CD 195; Cat. Nr. 555990) (antibody)
  IC50, PhenoSenseHIV assay (ViroLogic) using JRCSF strain: 1.4 µg/ml
  IC50, inhibition of HIV growth in human PBMC, JRCSF (p24 ELISA): 0.271 µg/mL
  IC50, inhibition of HIV growth in human PBMC, Nl-Bal (p24 ELISA): 0.076 µg/mL

Reference: US20070036796A1
